Measurements as given in patent publication US20220340685A1, “COMBINATION THERAPY WITH ENTPD2 AND CD73 ANTIBODIES” (Novartis AG, priority 2019, published 2022).

Experiments:
[1] = system: B16F10 tumor model; assay: Syngeneic B16F10 tumor model, tumor growth; type: in vivo, C57BL/6 mice; details: mAb13 15 mg/kg, anti-PD-1 Ab 10 mg/kg i.p., days 1, 5, 8
Description: B16F10 model was established in female C57BL/6 mice by subcutaneous injection of 0.5×10^6 cells into the right flank of each mouse. On day 7 once tumors reached approximately 30 mm^3, mice were randomized according to tumor volume into treatment groups (n=10 per group). Mice received treatment of either anti-mouse ENTPD2 mAb13 at a final dose 15 mg/kg, anti-PD-1 Ab (clone RMP1-14 Bio X Cell, West Lebanon, N.H.) i.p. at a final dose of 10 mg/kg or the combination of both treatments on days 1, 5, and 8. All doses were adjusted to individual mouse body weights.

[2] = system: 4T1 clone 45 model; assay: 4T1 clone 45 model, plasma cytokines and Serum Amyloid P 24 hr post treatment; type: in vivo, BALB/c mice; details: 24 hours after the first treatments
Excerpt: In order to investigate the immediate impact of ENTPD2 blockade from an immune pathway engagement/biomarker perspective plasma was collected from BALB/c mice 24 hr after treatment with anti mENTPD2 mAb15 alone or in combination with anti-CD73 mAb 350.
(§1) Mouse ENTPD2-engineered 4T1 clone 45 model was established in female BALB/c mice by subcutaneous injection of 0.5×10^6 cells into the right flank of each mouse. Once tumors reached approximately 100-150 mm^3, mice were randomized according to tumor volume into treatment groups (n=8 per group). Mice received an i.p. treatment of either Anti-mENTPD2 mAb 15 or a non-specific mouse IgG2a isotype control at a final dose of 10 mg/kg on day 0, 2, 5 and 9. Anti-CD73 mAb 350 or a non-specific human IgG4 was dosed i.p. at a final dose of 20 mg/kg on day 0 and 5 (Table 28).
For the measurement of cytokines and Serum Amyloid P, a marker of inflammation in a mouse, plasma was collected pre-dosing the mice on Day 0 and 24 hours after the first treatments on Day 1.
Briefly, plasma was isolated via collection of blood into Microvette MV-H-300 Capillary Plasma Lithium Heparin Blood Collection tube (Sai Infusion technologies, Lake Villa, Ill.), that were spun down at 1000-2000 ×g for 10 min. Plasma samples were stored at −80C until use. 10 μL of serum diluted 1:5 was used for cytokine analysis using the MSD Mouse Pro-Inflammatory Panel 1 (MSD, Rockville, Md.) and 5 μL of serum diluted 1:10 MSD Mouse Cytokine Panel 1 (MSD, Rockville, Md.) according to manufacturer's recommendations. To determine the levels of SAP 10 μL of undiluted serum was used for analysis in the SAP Quantikine® ELISA (RnD systems) according to manufacturer's recommendations.

[3] = system: 4T1 clone 45 tumors; assay: 4T1 clone 45 model, flow cytometry of tumor cells and immune infiltrate on day 12; type: in vivo, BALB/c mice
Excerpt: In order to understand the impact of anti-ENTPD2 mAb15 alone or in combination with anti-CD73 mAb 350 treatments on the tumor microenvironment, mice were euthanized on day 12 and tumors were dissociated in HyClone RPMI1640 media (GE Healthcare, Pittsburg, Pa.) using gentleMacs C-tubes (Miltenyi Biotec, Auburn, Calif.) on the gentleMacs Octo Dissociator (Miltenyi Biotec, Auburn, Calif.). Approximately 2×10^6 dissociated tumor cells were blocked with rat anti-mouse CD16/CD32 Ab (Biolegend, San Diego, Calif.) to reduce non-specific FcyRIII/II binding and subsequently stained with the cocktails of antibodies from either the myeloid or T cell panel:
We also stained cells with an anti-ENTPD2 antibody whose binding to ENTP2 is not blocked by anti-ENTPD2 mAb15. All incubations and washed were performed in FACS Buffer composed of 1× Hyclone Phosphate Buffered Saline (GE Healthcare, Pittsburg, Pa.), 1% HyClone Fetal Bovine Serum (GE Healthcare, Pittsburg, Pa.), 2 mM EDTA (ThermoFisher, Waltham Mass.).

[4] = system: mouse ENTPD2-engineered 4T1 clone 45; assay: Mouse ENTPD2 engineered 4T1 clone 45 syngeneic model, efficacy; type: in vivo, BALB/c mice; details: Day 12 post treatment; mAb15 10 mg/kg i.p.; mAb 350 20 mg/kg i.p.
Excerpt: This model was derived from the 4T1 murine breast cancer model, where mouse ENTPD2 was overexpressed using a retroviral transduction approach. […] Stable mouse ENTPD2 expression (approximately 479,000 receptors) in the model was confirmed in vitro by flow cytometry with the mouse ENTPD2 selective anti mouse ENTPD2 mAb15 (FIG. 27).
as §1, with “50-80” for “100-150”, “(n=10” for “(n=8”, “mAb15” for “mAb 15”, “5.” for “5 (Table 28).”

[5] = target: T1, ENTPD2 (Homo sapiens, UniProt Q9Y5L3); assay: Cell-based screen of hybridoma-derived mAbs for inhibition of ATP hydrolysis by ENTPD2
T1 sequence (Q9Y5L3 1-495): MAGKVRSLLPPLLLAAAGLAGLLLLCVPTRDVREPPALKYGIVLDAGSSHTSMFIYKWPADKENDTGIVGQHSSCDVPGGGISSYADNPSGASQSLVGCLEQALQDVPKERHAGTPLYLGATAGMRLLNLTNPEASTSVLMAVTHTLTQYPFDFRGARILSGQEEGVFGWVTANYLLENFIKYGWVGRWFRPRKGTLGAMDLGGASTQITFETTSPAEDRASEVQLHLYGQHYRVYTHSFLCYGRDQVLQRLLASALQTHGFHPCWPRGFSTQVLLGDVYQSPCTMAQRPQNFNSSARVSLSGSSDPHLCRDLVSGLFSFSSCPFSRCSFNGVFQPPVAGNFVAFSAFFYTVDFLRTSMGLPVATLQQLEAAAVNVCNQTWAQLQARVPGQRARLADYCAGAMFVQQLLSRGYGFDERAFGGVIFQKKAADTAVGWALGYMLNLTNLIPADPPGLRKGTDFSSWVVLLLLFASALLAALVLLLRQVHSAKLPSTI
Excerpt: Hybridoma-derived mAbs were screened in a cell-based assay for inhibition of ATP hydrolysis by ENTPD2.

B1: mAb13: anti-mouse ENTPD2 monoclonal antibody; HC SEQ ID NO: 193, LC SEQ ID NO: 204 (antibody)
heavy: QVQLVQSGAELKQPGQSVKISCKASGYTFTHYGMNWVKQAPGQGLKWMGWINTDTGNPTYADDFKGRFVFSLDTSVSTAYLQISNLKNEDTATYYCVRYGTLYSGYGFFFDSWGQGTLVTVSSAKTTAPSVYPLAPVCGDTTGSSVTLGCLVKGYFPEPVTLTWNSGSLSSGVHTFPAVLQSDLYTLSSSVTVTSSTWPSQSITCNVAHPASSTKVDKKIEPRGPTIKPCPPCKCPAPNLLGGPSVFIFPPKIKDVLMISLSPIVTCVVVDVSEDDPDVQISWFVNNVEVHTAQTQTHREDYNSTLRVVSALPIQHQDWMSGKEFKCKVNNKDLPAPIERTISKPKGSVRAPQVYVLPPPEEEMTKKQVTLTCMVTDFMPEDIYVEWTNNGKTELNYKNTEPVLDSDGSYFMYSKLRVEKKNWVERNSYSCSVVHEGLHNHHTTKSFSRTPGK
light: DIMMTQSPSSLSVSAGEKATITCKSSQSLFNSNTNKNYLNWYLQKPGQSPKLLFYYASTRHTGVPDRFIGSGSGTDFTLTITSVQDEDLADYYCQQWYSYPWTFGPGTKLEIKRADAAPTVSIFPPSSEQLTSGGASVVCFLNNFYPKDINVKWKIDGSERQNGVLNSWTDQDSKDSTYSMSSTLTLTKDEYERHNSYTCEATHKTSTSPIVKSFNRNEC
anti-tumor efficacy (tumor growth relative to No Treatment) [1]: No significant anti-tumor efficacy

B2: mAb15: anti-mouse ENTPD2 antibody, T30 variant of mAb13; HC SEQ ID NO: 218, LC SEQ ID NO: 204 (antibody)
heavy: QVQLVQSGAELKQPGQSVKISCKASGYTFHHYGMNWVKQAPGQGLKWMGWINTDTGNPTYADDFKGRFVFSLDTSVSTAYLQISNLKNEDTATYYCVRYGTLYSGYGFFFDSWGQGTLVTVSSAKTTAPSVYPLAPVCGDTTGSSVTLGCLVKGYFPEPVTLTWNSGSLSSGVHTFPAVLQSDLYTLSSSVTVTSSTWPSQSITCNVAHPASSTKVDKKIEPRGPTIKPCPPCKCPAPNLLGGPSVFIFPPKIKDVLMISLSPIVTCVVVDVSEDDPDVQISWFVNNVEVHTAQTQTHREDYNSTLRVVSALPIQHQDWMSGKEFKCKVNNKDLPAPIERTISKPKGSVRAPQVYVLPPPEEEMTKKQVTLTCMVTDFMPEDIYVEWTNNGKTELNYKNTEPVLDSDGSYFMYSKLRVEKKNWVERNSYSCSVVHEGLHNHHTTKSFSRTPGK
light: DIMMTQSPSSLSVSAGEKATITCKSSQSLFNSNTNKNYLNWYLQKPGQSPKLLFYYASTRHTGVPDRFIGSGSGTDFTLTITSVQDEDLADYYCQQWYSYPWTFGPGTKLEIKRADAAPTVSIFPPSSEQLTSGGASVVCFLNNFYPKDINVKWKIDGSERQNGVLNSWTDQDSKDSTYSMSSTLTLTKDEYERHNSYTCEATHKTSTSPIVKSFNRNEC
SAP (Serum Amyloid P) [2]: significant increase
plasma IP10 [2]: significant increase
plasma MCP1 [2]: significant increase
plasma MIP-2 [2]: significant increase
CD4+ central memory cells (CD45+MHCII-CD49−CD4+CD62L+CD44+) ([3]; day 12): significant increase
activated CD8+ T cells (CD45+MHCII-CD49−CD8+CD25+) ([3]; day 12): significant increase
cell surface ENTPD2 staining on tumor cells ([3]; day 12, vs hIgG4 and mIgG2 isotype antibodies): decrease in cell surface ENTPD2 staining
AT/AC value [4]: 76.61

B3: mAb16: hybridoma-derived anti-human ENTPD2 lead inhibitory mAb (chimeric); VH/VL DNA SEQ ID NO: 226/230 (antibody, V domains shown)
VH: DIQLQESGPGLVKPSQSLSLTCSVTGYSITSGYYWNWIRQFPGNKLEWMGYISYDGDNNYNPSLKNRISITRDTSKNQFFLKLSSVTTEDTATYYCAGGYYRYGLSYYYVMDYWGQGTSVTVSS
VL: DTVLTQSPASLAVSLGQRATISCKASQSVDYDGNSYMNWYQQKPGQPPKLLIYAASNLESGIPARFSGSGSGTDFTLNIHPVEEEDAATYYCQQSNEDPPTFGGGTKLEIK
modifications: constant regions not cited
inhibition of ATP hydrolysis by ENTPD2 (screen outcome) [5]: lead inhibitory mAbs
